assay: soluble on expression in E. coli; label from the status in PepcDB or PDB records

Row | Sequence | soluble on expression in E. coli
1 | MKVSEKTYLSIEEIISLPTVSSTNISDDGKNVAFVKRTANWEDNTYRNHVWIYEKDKGKSYPLTTGDIDSIHPLWSPDSKSIAYLSSGGDGDMKNQIFVKSLDDYSKVKITDEKEGISNFKWDPTGKGFYYITQSKECEEIKKRKELYGDFQHVGKEHQNNCLCYIEMEKVIQNDKEEREINGVYQLTGGKDFYIHGFDISDNGKKVVCMATPSLNDHMNGDLYILDVEARELQQMNVDKLLGGSACFSPEGNKICYSASIREKEYYRNHIQESTLEIYDMNTGEVIQPLTNFDSMVMPLQWTAKGILIRWQDKTNYFIGLLAEDGTVETLREKVDGFIMDASITRDGNHITYNKAITNETFEIYLDDKKITNENSLFEGKLKSNREIISWRSSDGLEIEGVLSTPVEFDANKKYPLLVVIHGGPAWASFPIFSNCFNEKYPIEQFVEKGFIVLEPNYRGSSGYGNEFLKANYRKQGLADYDDVISGVDELVEKGMVDKDRVGVMGWSNGGYISAFCSTFSSRFKAISVGGGITNWSTHYVNTDIPYFIRMYLGNTPWNDPDIYKRTSPMTYIKSACTPTLIQHGEKDARIPITNAYELHQGLKDMEVDTELIIFKGMAYSSDQPGVHVAIMKQNLMWFSHYILGESMEDFSTI | not soluble
2 | MGSDKIHHHHHHAEVADSIEGGNGEAPLEVRAVTGAEVDTRAPAAVEMTEGTLGIFRLAEADYTALDNIRYDRVPGGNWHPVSTVIYVGGTYARLCAYAPYNSVEFKNSSLKTEAGLTMQTYAVEKDMRFAVSGGDEVWKKTPTANFELKRAYARLVLSVVRDATYPNTCKITQAKIKASTGNIITANTVDISTGTEGSGTQTPQYTHTVTTGLKDGFEIGVTDDTSFDWLLPQQTFSGGVVLTLTVDGMDYSVTIPVDKLSTFVRGTKYTVSLVVKGGKLTLMSDKILIDRDWTEVQTGTGGSGSDYDTSFN | not soluble
3 | MYREFYGLTEKPFSKTPDPRYLFLSRGHREALARLQYAVEERELALLTGDIGCGKTTISRALMDAVGNDGCFCFIVNPRLSAVEFLRTVARSLGIAEPAAAKDELLRQLTEAVYRLEGEKRCPVIIIDEAQLIPDQEVFDEIRLLTNFQLDDRNLMSVILMGQPELRQILSEPAHEALRQRIAMHYHLQPLSLEETLEYVDFRVEVAGGPQGLFSPDAIRRIYELSGGVPRKINILATNALLVGFGKDSAWIDASLVEELRDEASLYLEHHHHHH | not soluble
4 | MAHHHHHHMAAAPSATAPKHNYTLGTNASQLELYKYLKTVPPIPELRQAVTIKKYEEASVDDTLYPLIDEHQIIMVVGAFFGDEGKGKTVDAVARHPACTCVARVNSGENAGHTVFDDIGRKYVFNLAPSSLLTPNTRNYVSSECVMDPISFMEREIGQFIKSNMPYKDKLFVGNVFVVTPYHKLLDLLGSAPNSSTLKGMSPIHASKVTKRGIRLDHIFNDEGVLRARLAKDMDTYYGLLKVKGLTDKDVVRRCQEENADGVERVPGYVVDFARAENKIDYLVKLYTERVKNNKDFPRRCDVTHELRAALARGEKLLLEGPQSYWLSNAREKFWESTTSADTTAGGLLASAQFNFQRYKVLVINVHKAPGSSRVGIGANPSSFVPQDYYSAQDIKTLEALPKGGCVDFDKIQNFFYTKAFNTESKTFNGIYEPLEYEDATGKYNIGVAMSIASARHHGECGAVTKKPRVCGFFDCVLHFEVNAVQGPYLSISAVDRGDDYDRIGITIAYVYYDVGNKMVDANGRVYKNGDIIKAGDPVPCEMALYHCYPIVKVINGWKGAPIAASKRRPNEPLPKGVCEFIANVEFFTGAKVISIGNGPRGSDIIYLKQ | soluble
5 | SHMAPEDPNEEAVSQIFPDSVMLAVQEGIDLLTFPPAPGSPE | soluble
6 | MSLKMTFCRAVCLAAAFLLMGCDEAPETTTASPAAQVLEGKTMGTLWRVSVVGIDAKRAAELQTKIQTQLDADDWLLSTYKNDSALMRFNHSRSLAPWPVSEAMADIVTSALRIGAKTDGAMDITVGPLVNLWGFGPDRQPLHIPTPAQIDAAKAKTGLQHLQVIDRAGHQFLQKDLPDLYVDLSTVGEGYAADHLARLMEQEGIARYLVSVGGALSSRGMNAQGQPWRVAIQKPTDRENAVQAIVDINGHGISTSGSYRNYYELDGKRVSHVIDPQTGRPIEHNLVSVTVIAPTALEADGWDTGLMVLGTQKAQEVVRREGLAVFMIMKEGEGFKTWMSPQFKTFLVSDKNEGGSHHHHHH | soluble
7 | SLKIKQIVKPGLAVLAAGVLSACATKSNVKADGTTDNPVFPKPYSVTLDNNRGTFPTYDELDLMRPGLTKDDIYKILGRPHYDEGMYGVREWDYLFHFHTPGVGIDPENTSGVEGITTCQYKIIFDKDKFARSFYWNPVFPKDAACPPPAPKAEPQVIIREIVPAKPKRIRQ | soluble

Reference: the DeepSol protein solubility set
